# Data from paper PMC11270187 (Antibodies, 2024).
# Positions count from the first letter of the chain named. Names and notes keep the numbering of the source.
# B1: parental 44H10 IgG (antibody, V domains shown)
# VH: QVQLKESGPGLVAPSQSLSITCTVSGFSLTSYGVHWVRQPPGKGLEWLGVIWAGGSINYNSALMSRLSISKDNFKSQVFLKMSSLQTDDTAMYYCARAYGDYVHYAMDYWGQGTSVTASS
# VL: DIQMTQSPSSLSASLGQRVSLTCRASQEISGYLTWLQQKPDGTIKRLVYAASTLDSGVPKRFSGSRSGSDYSLTISSLESEDFADYYCLQYTNYPLTFGAGTKLELK
# notes: murine IGHV2-9; Fab part also in PDB 8EUQ; murine IGKV9-124; also in PDB 8EUQ; IgG; also called mAb 44H10; murine mAb 44H10; source: FreeStyle 293-F, transfected, purified (protein A, SEC)
# B2:  (Fab, V domains shown)
# VH: QVQLQESGPGLVKPSETLSLTCTVSGFSLTSYGVHWIRQPPGKGLEWIGVIWAGGSINYNSALMSRVTISKDTSKNQVSLKLSSVTAADTAVYYCARAYGDYVHYAMDYWGQGTLVTVSS
# VL: DIQMTQSPSSLSASVGDRVTITCRASQEISGYLTWLQQKPGKAPKLLIYAASTLDSGVPSRFSGSGSGTDFTLTISSLQPEDFATYYCLQYTNYPLTFGQGTKLEIK
# notes: as the heavy chain of m11 with the changes below; as the light chain of m11; also called V14-V71K/F78V double mutant; V14-V71K-F78V; source: FreeStyle 293-F, transfected, purified (KappaSelect, MonoS, SEC)
# B3: humanized 44H10 version 21 IgG (V17 with light chain S60K and G66R back-mutations) (antibody, V domains shown)
# VH: QVTLKESGPVLVKPTETLTLTCTVSGFSLTSYGVHWIRQPPGKALEWLAVIWAGGSISYSTSLMSRLTISKDTSKSQVVLTMTNMDPVDTATYYCARAYGDYVHYAMDYWGQGTLVTVSS
# VL: B2 VL with S60K, G66R
# notes: as the heavy chain of m5 (IGHV2-26 with Kabat 44H10 CDRs); as the light chain of m5 with the changes below; IgG with human Fc; also called V21; source: FreeStyle 293-F, transfected, purified (protein A, SEC)
# B4: humanized 44H10 version 19 IgG (V17 with light chain G66R back-mutation) (antibody, V domains shown)
# VH: B3 VH
# VL: B2 VL with G66R
# notes: as the heavy chain of m5; as the light chain of m5 with the change below; IgG with human Fc; also called V19; source: FreeStyle 293-F, transfected, purified (protein A, SEC)
# B5: humanized 44H10 version 22 IgG (antibody, V domains shown)
# VH: B2 VH
# VL: B2 VL with S60K, G66R
# notes: as the heavy chain of m10 (IGHV4-59 with Kabat 44H10 CDRs) with the back-mutations below; as the light chain of m5 (IGKV1-16, printed here as IGHK1-16, with Kabat 44H10 CDRs) with the back-mutations below; IgG with human Fc; also called V22; lead humanized candidate; source: FreeStyle 293-F, transfected, purified (protein A, SEC)
# B6: humanized 44H10 version 20 IgG (V17 with light chain S60K back-mutation) (antibody, V domains shown)
# VH: B3 VH
# VL: B2 VL with S60K
# notes: as the heavy chain of m5; as the light chain of m5 with the change below; IgG with human Fc; also called V20; source: FreeStyle 293-F, transfected, purified (protein A, SEC)
# Tests used:
# [1] = target: T1, HLA-DR on BJAB cells (Homo sapiens; endogenous HLA-DR of BJAB …); test: flow cytometry on cells; screen: purified IgGs at 10 µg/mL on HLA-DR-expressing BJAB cells, Fc Block, 1 h at 4 °C, detected with AF488 goat anti-human IgG Fcγ; conditions: one partner purified
# T1 construct: HLA-DR α chain, endogenous on BJAB B-lymphoblastoid cells; HLA-DR β chain, endogenous on BJAB B-lymphoblastoid cells; also called HLA-DR-expressing B-lymphoblastoid cell line BJAB; source: endogenous, on BJAB cells
# [2] = target: T2, TEV-cleaved recombinant HLA-DR (Homo sapiens, …); test: BLI; Fabs loaded on FAB2G biosensors; two-fold dilutions of TEV-cleaved HLA-DR from 500 nM; 25 °C; PBS pH 7.4, 0.01% BSA, 0.002% Tween; 1:1 model; conditions: both partners purified
# T2 construct: also called TEV-cleaved HLA-DR; source: HEK 293S (GnT I-/-), purified (HisTrap Ni-NTA, SEC), TEV-cleaved; for crystallization also EndoH-treated and purified a second time
# [3] = target: T1, HLA-DR on BJAB cells; test: flow cytometry on cells; full antibody titration of purified IgGs on HLA-DR-expressing BJAB cells, Fc Block, 1 h at 4 °C, detected with AF488 goat anti-human IgG Fcγ; also after storage of the IgGs at -20, 4 or 40 °C for up to 4 weeks; conditions: one partner purified
Binder,fold improvement of EC50 against V17 [3],also measured
B1,–,binding result [1]: binds
B2,–,Kd [2]: 206 nM
B3,~3 fold,–
B4,~3 fold,–
B5,–,fold reduction in EC50 against parental 44H10 IgG [3]: < 2 fold
B6,~3 fold,–
